The nanobody polyreactivity screen of Harvey et al. (2022)

assay: yeast display, Sf9 membrane polyspecificity reagent, FACS + sequencing; frameworks hold sequencing errors
Procedure, shortened: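 Galactose induction of a Saccharomyces cerevisiae BJ5465 synthetic nanobody display library ran 36–48 hours. The cells were then stained for 1 hour at 4 °C with 10% biotinylated, detergent-solubilized Sf9 membrane reagent, pulled down on streptavidin microbeads and FACS-sorted into low and high (top ~1%) gates on expression and reagent-binding fluorescence. Labels for polyreactivity follow the gate of origin.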

Row | Sequence | polyreactivity (PSR sort gate)
1 | QVQLVESGGGLVQAGGSLRLSCAASGYIFATYAMGWYRQAPGKERELVAAISWSGGRTYYADSVKGRFTISRDNAKNTVYLQMNSLKPEDTAVYYCNKATSRRVYGYDYWGQGTQVTVSS | high polyreactivity
2 | QVQLVESGGGLVQAGGSLRLSCAASGYIFATYAMGWYRQAPGKERELVAAITSTGSTYYADSVKGRFTISRDNAKNTVYLQMNSLKPEDTAVYYCAAVSGYRARYYLYYYWGQGTQVTVSA | high polyreactivity
3 | QVQLVESGGGLVQAGGSLRLSCAASGYIFDLNPMGRYRQAPGKERELVAAISTGGGTYYADSVKGRFTISRDNAKNTVYLQMNSLKPEDTAVYYCAADWGYWYAEYDYWGQGTLVTVSS | low polyreactivity
4 | QVQLVESGGGLVQAGGSLRLSCAASGYIFDRYAMGWYRQAPGKERELVAAISSDGSTYYADSVKGRFTISRDNAKNTVYLQMNSLKPEDTAVYYCAADGGESAWGGYDYWGQGTQVTVSS | low polyreactivity
5 | QVQLVESGGGLVQAGGSLRLSCAASGYIFEDYAMGWYRQAPGKERELVASIDSGSTTNYADSVKGRFTISRDNAKNTVYLQMNSLKPEDTAVYYCAADSYVSPEVRFDYWGQGTQVTVSS | low polyreactivity
6 | QVQLVESGGGLVQAGGSLRLSCAASGYIFEVNAMGWYRQAPGKERELVATIDTSSGSTNYADSVKGRFTISRDNAKNTVDLQMNSLKPEDTAVYYCAADDETVFLQDDYWGQGTQVTVSS | low polyreactivity
7 | QVQLVESGGGLVQAGGSLRLSCAASGYIFFNAMGWYRQAPGKERELVAAITYPVGSTHYADSVKGRFTISRDNAKNTVYLQMNSLKPEDTAVYYCAAEWYQYLRWYWTYEYYWGQGTQVTVSS | low polyreactivity
8 | QVQLVESGGGLVQAGGSLRLSCAASGYIFGINDMAWYIQAPGKERELVAAIRISGGSTYYADSVKGRFTISRDNAKNTVYLQMNSLKPEDTAVYYCNAQDDGGLEWRYEEDDYWGQGTQVTVSS | low polyreactivity
9 | QVQLVESGGGLVQAGGSLRLSCAASGYIFGSYAMGWYSQAPGKERELVATISYRAGRTYYADSVKGRFTISRDNAKNTVDLQMNSLTPEDTAVYYCAADLVIYLEYDYWGQGTQVTVSS | low polyreactivity
10 | QVQLVESGGGLVQAGGSLRLSCAASGYIFGVYAMGWYRQAPGKERELVAAISYGVGSTYYADSVKGRFTISRDNAKNTVYLQMNSLKPEDTAVYYCAADVFFYVYEAYLLYYWGQGTQVTVSS | low polyreactivity
11 | QVQLVESGGGLVQAGGSLRLSCAASGYIFGVYAMGWYRQAPGKERELVAVISSGDRTNYADSVKGRFTISRDNAKNTVYLQMNSLKPEDTAVYYCAADGRSPSYYGYDHWGQGTQVTVSS | low polyreactivity
12 | QVQLVESGGGLVQAGGSLRLSCAASGYIFGVYVMGWYRQAPGKERELVAAITRGGGNTYYADSVKGRFTFSRDNAKNPVYLQMNSLKPEDTAVYYCAARSLKSLSRYYYWGQGTQVTVSS | high polyreactivity
13 | QVQLVESGGGLVQAGGSLRLSCAASGYIFGWYDMGWYRQAPGKERELVAAIDSGGNTYYADSVKGPFTISRDNAKNTVYLQMNSLKPEDTAVYYCNADYWGWSGPPYEYWGQGTQVTVSS | high polyreactivity
14 | QVQLVESGGGLVQAGGSLRLSCAASGYIFGYNAMGWYRPAPGKERELVAAISRSAGRTYYADSVKGRFTISRDNAKNTVYLQMNSLKPEDSAVYYCAAQSYWLGYEYWGQGTQVTVSS | high polyreactivity
15 | QVQLVESGGGLVQAGGSLRLSCAASGYIFHLYAMGWYRQAPGKERELVAAISSGGRTYYADSVKGRFTISRDNAKNTVYLQMNSLKPEDTAVYYCAVRSYVNTAVGYYYWGQGTQVTVSS | high polyreactivity
16 | QVQLVESGGGLVQAGGSLRLSCAASGYIFHSYAMGWYRQAPGKERELVAAITSSGGSTYYADSVKGRFTISRDNAKNTVYLQMNSLKPEDTAVYYCAAEYYYVYPYYRSPKFDYWGQGTQVTVSS | high polyreactivity

Row | Sequence | polyreactivity (PSR sort gate)
17 | QVQLVESGGGLVQAGGSLRLSCAASGYIFKGNVMGWYRQAPGKERELVAAISSSGGRTYYADSVKWRFTISRDNAKNNVYLQMYSLKPEDTAVYYCNTKHRTKPTGPVDYWGQGTQVTVSS | high polyreactivity
18 | QVQLVESGGGLVQAGGSLRLSCAASGYIFKPNTMGWYRQAPGKERELVAAITRGGRTKYADSVKGRFTISRDNAKNTVYLQMNSLKPEATAVYYCNKVRTVTTYEYWGQGTQVTVSS | high polyreactivity
19 | QVQLVESGGGLVQAGGSLRLSCAASGYIFKRYAMGWYRQAPGKERELVAAISGNGGSTYYADSVKGRFTISRDNAKNTVYLQMNSLKPEDTAVYYCNKSGYYSPTSKGEYWGQGTQVTVSS | low polyreactivity
20 | QVQLVESGGGLVQAGGSLRLSCAASGYIFKSYVMGWNRQEPGKESELVAAITWSGGSTYYADSVKGRFTISRDNAKNTVYLQMNSLKPEDTAVYYCAAYRRRYRTTYDYWGQGTQVTVSS | high polyreactivity
21 | QVQLVESGGGLVQAGGSLRLSCAASGYIFKYYAMGWYIQAPGKERELVASITSGGRTNYADSVKGRFTISRDNAKNTVYLQMNSLKPEDTAVYYCAATSKYQQDPRRYDYWGHGTQVTVSS | high polyreactivity
22 | QVQLVESGGGLVQAGGSLRLSCAASGYIFLANAMGWYRQAPGKVRELVAAITSGGGGTYYADSVKGRFTFSRDNAKNTVYLQMNSLKPEDTAVYYCAADHGRDGSSFEYWGQGTQVTVSS | low polyreactivity
23 | QVQLVESGGGLVQAGGSLRLSCAASGYIFLRNAMGWSRQAPGKERELVASISSDDTSTHYADSVKGRFTISRDNAKNTVYLQMNSLKPEDTAVYYCAARNTPAYIDYNYWGQGTQVTVSS | low polyreactivity
24 | QVQLVESGGGLVQAGGSLRLSCAASGYIFPGNAMGWYRQAPGKERELVAAINWSGTRTYYADSVKGRFTISRDNAKNTVYLQLNSLKPEDTAVYYCNRVWRVPIETYTRYDYWGQGTQVTVSS | high polyreactivity
25 | QVQLVESGGGLVQAGGSLRLSCAASGYIFRGYVMGWYRQAPGKERELVAAISYGDGGTYYADSVKGRFTLSRDNAKNTVYLQMNSLKPEDTAVYYCAAPPYSFWGDYYSAGYYYWGQGTQVTVSS | low polyreactivity
26 | QVQLVESGGGLVQAGGSLRLSCAASGYIFRIYAMGWYRQAPGKERELVARISSGGGTNYADSVKGRFTISRDNAKNTVYLQMNSLKPEDTAVYYCNAGYGSQRGGVFFYRMGYWGQGTQVTVSS | high polyreactivity
27 | QVQLVESGGGLVQAGGSLRLSCAASGYIFRNVMGWYRQAPGKERELVATISGSGGSTYYADSVKGRFTISRDNAKNTVYLQMNSLKPEDTAVYDCSKRWYRLGRYGGYDYWGQGTQVTVSS | high polyreactivity
28 | QVQLVESGGGLVQAGGSLRLSCAASGYIFRWYAMGWYRQAPGKERELVARITNGARTYYADSVKGRFTISRDNAKNTVYLQMNSLKPEDTAVYYCAATVPPTYRRYYYWGQGTQVTVSS | high polyreactivity
29 | QVQLVESGGGLVQAGGSLRLSCAASGYIFRYYAMGRYRQAPGKERELVAAITARAGRTYYADSVKGRFTISRDNAKNTVYLQMTSLKPEDTAVYYCAAVRTKVWRGPEMDYWGQGTQVNVSS | high polyreactivity
30 | QVQLVESGGGLVQAGGSLRLSCAASGYIFRYYAMGWYRQAPGKEREFVAAISRNGGSTYYADSVKGRFTISRDNAKNTVYLQMNSLKPEDTAVYYCNKRVGFLYKYDYWGQGTQVTVSS | high polyreactivity
31 | QVQLVESGGGLVQAGGSLRLSCAASGYIFSLNGMGWYRQAPGKVRELVAAITVSGGRTYYADSVKGRFTISRDNAKNTVYLQMNSLKPEDTAVYYCAKRGKYSYWPYYKYDYWGQGTQVTVSS | high polyreactivity
